The target in this assay is SARS-CoV-2 Delta Spike antigen (SARS-CoV-2 Delta).

The record followed here is patent publication US20260234223A1.

As usually defined, the EC50 is the concentration that produces a half-maximal response.

As for Anti-S1 antibody DZIF-10c, the EC50 was 6.9 nM.

For the substance Anti-S1 mAb ImdevimAb (antibody), the EC50 amounted to 0.01 nM.
